Test results from IntAct's records for PubMed 22878415.

B1: SUMO-specific isopeptidase USPL1 (Homo sapiens), Q5W0Q7 (parent)
chain: MMDSPKIGNGLPVIGPGTDIGISSLHMVGYLGKNFDSAKVPSDEYCPACREKGKLKALKTYRISFQESIFLCEDLQCIYPLGSKSLNNLISPDLEECHTPHKPQKRKSLESSYKDSLLLANSKKTRNYIAIDGGKVLNSKHNGEVYDETSSNLPDSSGQQNPIRTADSLERNEILEADTVDMATTKDPATVDVSGTGRPSPQNEGCTSKLEMPLESKCTSFPQALCVQWKNAYALCWLDCILSALVHSEELKNTVTGLCSKEESIFWRLLTKYNQANTLLYTSQLSGVKDGDCKKLTSEIFAEIETCLNEVRDEIFISLQPQLRCTLGDMESPVFAFPLLLKLETHIEKLFLYSFSWDFECSQCGHQYQNRHMKSLVTFTNVIPEWHPLNAAHFGPCNNCNSKSQIRKMVLEKVSPIFMLHFVEGLPQNDLQHYAFHFEGCLYQITSVIQYRANNHFITWILDADGSWLECDDLKGPCSERHKKFEVPASEIHIVIWERKISQVTDKEAACLPLKKTNDQHALSNEKPVSLTSCSVGDAASAETASVTHPKDISVAPRTLSQDTAVTHGDHLLSGPKGLVDNILPLTLEETIQKTASVSQLNSEAFLLENKPVAENTGILKTNTLLSQESLMASSVSAPCNEKLIQDQFVDISFPSQVVNTNMQSVQLNTEDTVNTKSVNNTDATGLIQGVKSVEIEKDAQLKQFLTPKTEQLKPERVTSQVSNLKKKETTADSQTTTSKSLQNQSLKENQKKPFVGSWVKGLISRGASFMPLCVSAHNRNTITDLQPSVKGVNNFGGFKTKGINQKASHVSKKARKSASKPPPISKPPAGPPSSNGTAAHPHAHAASEVLEKSGSTSCGAQLNHSSYGNGISSANHEDLVEGQIHKLRLKLRKKLKAEKKKLAALMSSPQSRTVRSENLEQVPQDGSPNDCESIEDLLNELPYPIDIASESACTTVPGVSLYSSQTHEEILAELLSPTPVSTELSENGEGDFRYLGMGDSHIPPPVPSEFNDVSQNTHLRQDHNYCSPTKKNPCEVQPDSLTNNACVRTLNLESPMKTDIFDEFFSSSALNALANDTLDLPHFDEYLFENY

Variants of: B1
Settings: with sumo3_human SUMO3, P55854
Chain of sumo3_human SUMO3, P55854 (P55854 whole entry): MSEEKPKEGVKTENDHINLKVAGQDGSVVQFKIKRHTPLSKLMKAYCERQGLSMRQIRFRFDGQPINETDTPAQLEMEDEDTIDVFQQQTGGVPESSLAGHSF

| Variant | effect of a mutation on the interaction |
| --- | --- |
| W229L | decreasing interaction |

Variants of: B1
Settings: with sumo3_human SUMO3, P55854
Remark: another data set of the same source

| Variant | effect of a mutation on the interaction |
| --- | --- |
| W229L | disrupting interaction |

Variants of: B1
Settings: with sumo3_human SUMO3, P55854
Remark: another data set of the same source

| Variant | effect of a mutation on the interaction |
| --- | --- |
| W237F | decreasing interaction |

Variants of: B1
Settings: with sumo3_human SUMO3, P55854
Remark: another data set of the same source

| Variant | effect of a mutation on the interaction |
| --- | --- |
| W237F | disrupting interaction |

Variants of: B1
Settings: with sumo3_human SUMO3, P55854
Remark: another data set of the same source

| Variant | effect of a mutation on the interaction |
| --- | --- |
| E331A | decreasing interaction |

Variants of: B1
Settings: with sumo3_human SUMO3, P55854
Remark: another data set of the same source

| Variant | effect of a mutation on the interaction |
| --- | --- |
| H421A | decreasing interaction |

Variants of: B1
Settings: with sumo3_human SUMO3, P55854
Remark: another data set of the same source

| Variant | effect of a mutation on the interaction |
| --- | --- |
| L340A | decreasing interaction |
| L341A | decreasing interaction |

Variants of: B1
Settings: with sumo3_human SUMO3, P55854
Remark: another data set of the same source

| Variant | effect of a mutation on the interaction |
| --- | --- |
| L340A | disrupting interaction |
| L341A | disrupting interaction |

Variants of: B1
Settings: with sumo3_human SUMO3, P55854
Remark: another data set of the same source

| Variant | effect of a mutation on the interaction |
| --- | --- |
| I494A | decreasing interaction |
| V495A | decreasing interaction |

Variants of: B1
Settings: with sumo3_human SUMO3, P55854
Remark: another data set of the same source

| Variant | effect of a mutation on the interaction |
| --- | --- |
| V495A | disrupting interaction |
| I494V | disrupting interaction |
